# Measured values: the Human Domainome abundance scans (Beltran et al. 2025)
# ± gives the uncertainty stated by the source.
# B1: Lysine-specific demethylase 2B, residues 656 to 722; numbered along this chain, Q8NHM5 (parent)
# chain: LPHTAVCLVCGEAGKEDTVEEEEGKFNLMLMECSICNEIIHPGCLKIKESEGVVNDELPNCWECPKC
# Variants of: B1
# Test: abundance fitness (aPCA) (normalised: wild type 0, dead -1); higher = more abundant; growth selection in yeast, the domain comes from the species named
# Conditions: Homo sapiens
row,Variant,abundance fitness
1,LPHTAVCLVCGEAGKEDTVEEETGKFNLMLMECSICNEIIHPGCLKIKESEGVVNDELPNCWECPKC [E23T],-0.028 ± 0.12
2,LPHTAVCLVCGEAGKEDTVEEEEGKFNLMSMECSICNEIIHPGCLKIKESEGVVNDELPNCWECPKC [L30S],-0.452 ± 0.078
3,LPHTAVCLVCGEAGKEDTVEEEEGKFNLMKMECSICNEIIHPGCLKIKESEGVVNDELPNCWECPKC [L30K],-0.034 ± 0.23
4,LPHTAVCLVCGEAGKEDTVEEEEGKFNLMLMECSICNEIIHPGCLKIKTSEGVVNDELPNCWECPKC [E49T],0.045 ± 0.07
5,LPHTAVCLVCGEAGKEDTVEEEEGKFNLMLMECSICNEIIHPGCLKIKRSEGVVNDELPNCWECPKC [E49R],-0.103 ± 0.053
6,LPHTAVCLVCSEAGKEDTVEEEEGKFNLMLMECSICNEIIHPGCLKIKESEGVVNDELPNCWECPKC [G11S],-0.113 ± 0.11
7,LPHTAVCLVCGEAGKEDTVEEEEGKQNLMLMECSICNEIIHPGCLKIKESEGVVNDELPNCWECPKC [F26Q],-0.37 ± 0.14
8,LPHTAVCLVCGEAGKEDTVEEEEGKSNLMLMECSICNEIIHPGCLKIKESEGVVNDELPNCWECPKC [F26S],-0.343 ± 0.12
9,LPHTAVCLVCGEAGKEDTVEEEEGKFNLMLMERSICNEIIHPGCLKIKESEGVVNDELPNCWECPKC [C33R],-0.593 ± 0.12
10,LPHTAVCLVCGEAGKEDTVEEEEGKFNLMLMECSNCNEIIHPGCLKIKESEGVVNDELPNCWECPKC [I35N],-0.295 ± 0.23
11,LPHTAVCLVCGEAGKEDTVEEEEGKFNLMLMECSICNEIIHPGVLKIKESEGVVNDELPNCWECPKC [C44V],-0.906 ± 0.15
12,LPHTAVCLVCGEAGKEDTVEEEEGKFNLMLMECSICNEIIHPGSLKIKESEGVVNDELPNCWECPKC [C44S],-0.843 ± 0.14
13,LPHTAVCLVCGEAGKEDTIEEEEGKFNLMLMECSICNEIIHPGCLKIKESEGVVNDELPNCWECPKC [V19I],-0.131 ± 0.33
14,LPHTAVCLVCGEAGKEDTVHEEEGKFNLMLMECSICNEIIHPGCLKIKESEGVVNDELPNCWECPKC [E20H],-0.176 ± 0.21
15,LPHTAVCLVCGEAGKEDTVEEEEGKFNLMLYECSICNEIIHPGCLKIKESEGVVNDELPNCWECPKC [M31Y],-0.317 ± 0.18
16,LPHTAVCLVCGEAGKEDTVEEEEGKFNLMLLECSICNEIIHPGCLKIKESEGVVNDELPNCWECPKC [M31L],-0.053 ± 0.1
17,LSHTAVCLVCGEAGKEDTVEEEEGKFNLMLMECSICNEIIHPGCLKIKESEGVVNDELPNCWECPKC [P2S],0.729 ± 0.13
18,LAHTAVCLVCGEAGKEDTVEEEEGKFNLMLMECSICNEIIHPGCLKIKESEGVVNDELPNCWECPKC [P2A],0.708 ± 0.14
19,LKHTAVCLVCGEAGKEDTVEEEEGKFNLMLMECSICNEIIHPGCLKIKESEGVVNDELPNCWECPKC [P2K],0.78 ± 0.15
20,LEHTAVCLVCGEAGKEDTVEEEEGKFNLMLMECSICNEIIHPGCLKIKESEGVVNDELPNCWECPKC [P2E],0.854 ± 0.14

row,Variant,abundance fitness
1,LPHTAVCLVCGEAGKEDTVEEEEGKFNLMLMECSICNEIIHPGCLKIKESEGVVNDELPNEWECPKC [C61E],-0.105 ± 0.09
2,LPHTAVCLVCGEAEKEDTVEEEEGKFNLMLMECSICNEIIHPGCLKIKESEGVVNDELPNCWECPKC [G14E],-0.395 ± 0.17
3,LPHTAVCLVCGEACKEDTVEEEEGKFNLMLMECSICNEIIHPGCLKIKESEGVVNDELPNCWECPKC [G14C],-1.04 ± 0.28
4,LPHTAVCLVCGEAWKEDTVEEEEGKFNLMLMECSICNEIIHPGCLKIKESEGVVNDELPNCWECPKC [G14W],-0.635 ± 0.095
5,LPHTAVCLVCGEAGKEDTVEEEEGKFNLMLMECSIGNEIIHPGCLKIKESEGVVNDELPNCWECPKC [C36G],-0.794 ± 0.09
6,LPHTAVCLVCGEAGKEDTVEEEEGKFNLMLMECSICNEEIHPGCLKIKESEGVVNDELPNCWECPKC [I39E],-0.256 ± 0.085
7,LPHTAVCLVCGEAGKEDTVEEEEGKFNLMLMECSICNEKIHPGCLKIKESEGVVNDELPNCWECPKC [I39K],-0.021 ± 0.12
8,LPHTAVCLVCGEAGKEDTVEEEEGKFNLDLMECSICNEIIHPGCLKIKESEGVVNDELPNCWECPKC [M29D],-0.552 ± 0.26
9,LPHTAVCLVCGEAGKEDTVEEEEGKFNLQLMECSICNEIIHPGCLKIKESEGVVNDELPNCWECPKC [M29Q],-0.15 ± 0.24
10,LPHDAVCLVCGEAGKEDTVEEEEGKFNLMLMECSICNEIIHPGCLKIKESEGVVNDELPNCWECPKC [T4D],-0.2 ± 0.21
11,LPHCAVCLVCGEAGKEDTVEEEEGKFNLMLMECSICNEIIHPGCLKIKESEGVVNDELPNCWECPKC [T4C],-0.395 ± 0.2
12,LPHTAVCLVCGEAGIEDTVEEEEGKFNLMLMECSICNEIIHPGCLKIKESEGVVNDELPNCWECPKC [K15I],-0.305 ± 0.16
13,LPHTAVCLVCGAAGKEDTVEEEEGKFNLMLMECSICNEIIHPGCLKIKESEGVVNDELPNCWECPKC [E12A],-0.139 ± 0.081
14,LPHTAVCLVCGNAGKEDTVEEEEGKFNLMLMECSICNEIIHPGCLKIKESEGVVNDELPNCWECPKC [E12N],-0.365 ± 0.17
15,LPHTAVCLVCGEAGKEDTVEEEEGKFNLMLMECSICNEIIHPGCLKIKESEGVVRDELPNCWECPKC [N55R],-0.015 ± 0.09
16,LPHTAVCLVCGEAGKEDTVEEEEGKFNLMLMECSICNEIIHPGCLKIKESEGVANDELPNCWECPKC [V54A],0.089 ± 0.12
17,LPHTAVCLVCGEAGKEDTVEEEEGKFNLMLMECSICNEIIHPGCLKIKESEGVVNDELPNCWEEPKC [C64E],-0.718 ± 0.12
18,LPHTAVCLVCGEAGKEDTVEEEEGKFNLMLMECSICNEIIHPGCLKIKESEGVVNDELPNCWEQPKC [C64Q],-0.662 ± 0.2
19,LPHTAVCLVCGEAGKEDTVEEEEGKFNLMLMECSICNEIIHPGCLKIKESEGVVNDELPNCWEVPKC [C64V],-0.95 ± 0.16
20,LPHTAVCLVCGEAGKEDTVEEEEGKFNLMLMECSICNEIIHPGCLKIKESEGVVNDELPNCWEGPKC [C64G],-0.889 ± 0.1
